According to patent publication US20250250357A1 (NANJING ZAIMING PHARMACEUTICAL, published 2025):
Like-named read-outs stand apart in the source and are kept apart here.

Legend:
[1] = target: T1, human MSLN-FL-his protein (human, UniProt Q13421 296-580); assay: competitive ELISA; row F7.18.10
T1 construct: made in HEK293E cells, purified on nickel column; also called hMSLN-FL-his; human MSLN full-length protein; not shown: His tag
T1 sequence (Q13421 other isoform, or with tags, fused parts or gaps): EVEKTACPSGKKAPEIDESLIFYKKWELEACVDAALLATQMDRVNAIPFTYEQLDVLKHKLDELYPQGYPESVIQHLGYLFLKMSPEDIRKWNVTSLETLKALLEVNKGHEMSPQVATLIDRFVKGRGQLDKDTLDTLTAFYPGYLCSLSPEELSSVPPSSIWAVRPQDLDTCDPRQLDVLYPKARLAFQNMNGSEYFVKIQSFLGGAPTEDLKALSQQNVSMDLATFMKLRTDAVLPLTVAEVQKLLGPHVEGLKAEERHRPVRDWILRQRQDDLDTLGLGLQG

[2] = target: T1, human MSLN-FL-his protein; assay: competitive ELISA; row Tab142
[3] = target: T1, human MSLN-FL-his protein; assay: competitive ELISA; row F7.2.3
[4] = target: T1, human MSLN-FL-his protein; assay: SPR (Biacore), antibody captured on Protein A chip;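 also: flow cell at 25 °C, antigen injected for 240 s at five concentrations from 200 nM downward, dissociation followed up to 600 s, double-referenced, fitted with Langmuir 1:1 model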
[5] = target: T1, human MSLN-FL-his protein; assay: competitive ELISA; row Tab021
[6] = target: T2, human MSLN-FL-his protein (human, UniProt Q13421 296-580); assay: SPR (Biacore), antibody captured on Protein A, MSLN-FL-his injected
T2 construct: also called hMSLN-FL-his; human MSLN full-length protein

[7] = target: T3, human MSLN-R3-his protein (human, UniProt Q13421 487-598); assay: ELISA; antibody 100 nM
T3 construct: also called hMSLN-R3-his; not shown: His tag

[8] = target: T3, human MSLN-R3-his protein; assay: ELISA; antibody 0.001 nM
[9] = target: T4, human MSLN-R2-his protein (human, UniProt Q13421 391-486); assay: ELISA; antibody 1 nM
T4 construct: also called hMSLN-R2-his; not shown: His tag

[10] = target: T3, human MSLN-R3-his protein; assay: ELISA; antibody 1 nM
[11] = target: T4, human MSLN-R2-his protein; assay: ELISA; antibody 0.01 nM
[12] = target: T3, human MSLN-R3-his protein; assay: ELISA; antibody 1 nM; remark: listed apart in the source
[13] = target: T4, human MSLN-R2-his protein; assay: ELISA; antibody 0.1 nM
[14] = target: T4, human MSLN-R2-his protein; assay: ELISA; antibody 100 nM
[15] = target: T3, human MSLN-R3-his protein; assay: ELISA; antibody 0 nM (blank)
[16] = target: T4, human MSLN-R2-his protein; assay: ELISA; antibody 1 nM; remark: listed apart in the source
[17] = target: T3, human MSLN-R3-his protein; assay: ELISA; antibody 0.0001 nM
[18] = target: T3, human MSLN-R3-his protein; assay: ELISA; antibody 0.1 nM
[19] = target: T3, human MSLN-R3-his protein; assay: ELISA; antibody 10 nM
[20] = target: T4, human MSLN-R2-his protein; assay: ELISA; antibody 0 nM (blank)
[21] = target: T4, human MSLN-R2-his protein; assay: ELISA; antibody 0.0001 nM
[22] = target: T4, human MSLN-R2-his protein; assay: ELISA; antibody 10 nM
[23] = target: T4, human MSLN-R2-his protein; assay: ELISA; antibody 0.001 nM
[24] = target: T3, human MSLN-R3-his protein; assay: ELISA; antibody 0.01 nM
[25] = target: T5, monkey MSLN on HEK293T-monkey MSLN recombinant cells (monkey); assay: FACS, HEK293T-monkey MSLN cells
T5 construct: Full-length precursor as transfected; processing on the cell is not described; also called HEK293-monkey MSLN
T5 chain: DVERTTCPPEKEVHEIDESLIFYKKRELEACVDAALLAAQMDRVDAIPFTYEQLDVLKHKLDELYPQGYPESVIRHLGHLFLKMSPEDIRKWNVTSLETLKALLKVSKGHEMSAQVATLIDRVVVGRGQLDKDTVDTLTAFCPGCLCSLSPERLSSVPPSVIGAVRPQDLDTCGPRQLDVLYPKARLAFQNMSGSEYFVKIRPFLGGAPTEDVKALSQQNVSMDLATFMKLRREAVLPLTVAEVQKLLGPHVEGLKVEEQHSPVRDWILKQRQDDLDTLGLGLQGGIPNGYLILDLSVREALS

[26] = target: human MSLN on OVCAR3 tumor cells (human, UniProt Q13421 296-598); assay: FACS, OVCAR3 cells
[27] = target: T6, human MSLN-R3 on HEK293T-hMSLN-R3 recombinant cells (human, UniProt Q13421 487-606); assay: FACS, HEK293T-hMSLN-R3 cells
T6 construct: the C-terminal limit is uncertain; also called human MSLN-R3 membrane protein

human MSLN-R3 protein [28] = target: T7, human MSLN-R3 protein (human, UniProt Q13421 487-598); assay: ELISA, MSLN-R3 coated, antibody 1 nM
T7 construct: also called hMSLN-R3

human MSLN-R3 protein [29] = target: T7, human MSLN-R3 protein; assay: ELISA, MSLN-R3 coated, antibody 0.01 nM
human MSLN-R3 protein [30] = target: T7, human MSLN-R3 protein; assay: ELISA, MSLN-R3 coated, antibody 0.0001 nM
[31] = target: T6, human MSLN-R3 on HEK293T-hMSLN-R3 …; assay: FACS, HEK293T-hMSLN-R3 cells; remark: listed apart in the source
[32] = target: T6, human MSLN-R3 on HEK293T-hMSLN-R3 …; assay: FACS, HEK293T-hMSLN-R3 cells; remark: listed apart in the source
human MSLN-R3 protein [33] = target: T7, human MSLN-R3 protein; assay: ELISA, MSLN-R3 coated, antibody 100 nM
human MSLN-R3 protein [34] = target: T7, human MSLN-R3 protein; assay: ELISA, MSLN-R3 coated, antibody 10 nM
human MSLN-R3 protein [35] = target: T7, human MSLN-R3 protein; assay: ELISA, MSLN-R3 coated, antibody 0.001 nM
[36] = target: T6, human MSLN-R3 on HEK293T-hMSLN-R3 …; assay: FACS, HEK293T-hMSLN-R3 cells; remark: listed apart in the source
[37] = target: T6, human MSLN-R3 on HEK293T-hMSLN-R3 …; assay: FACS, HEK293T-hMSLN-R3 cells; remark: listed apart in the source
human MSLN-R3 protein [38] = target: T7, human MSLN-R3 protein; assay: ELISA, MSLN-R3 coated, antibody 0.1 nM

T4 sequence (Q13421 other isoform, or with tags, fused parts or gaps): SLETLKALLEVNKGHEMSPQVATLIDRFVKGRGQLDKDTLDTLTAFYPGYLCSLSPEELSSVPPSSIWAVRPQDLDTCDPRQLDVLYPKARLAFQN
T6 sequence (Q13421 495-614): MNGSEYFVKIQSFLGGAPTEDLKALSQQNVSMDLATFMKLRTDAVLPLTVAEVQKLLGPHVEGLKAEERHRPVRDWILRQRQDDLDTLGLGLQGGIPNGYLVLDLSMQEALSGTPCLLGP
T3 sequence (Q13421 495-606): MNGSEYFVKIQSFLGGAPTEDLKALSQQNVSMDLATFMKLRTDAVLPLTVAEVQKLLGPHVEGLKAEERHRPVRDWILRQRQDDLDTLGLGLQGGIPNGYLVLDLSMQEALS
T7 sequence (Q13421 495-606): as above
human MSLN on OVCAR3 tumor cells, sequence (Q13421 other isoform, or with tags, fused parts or gaps): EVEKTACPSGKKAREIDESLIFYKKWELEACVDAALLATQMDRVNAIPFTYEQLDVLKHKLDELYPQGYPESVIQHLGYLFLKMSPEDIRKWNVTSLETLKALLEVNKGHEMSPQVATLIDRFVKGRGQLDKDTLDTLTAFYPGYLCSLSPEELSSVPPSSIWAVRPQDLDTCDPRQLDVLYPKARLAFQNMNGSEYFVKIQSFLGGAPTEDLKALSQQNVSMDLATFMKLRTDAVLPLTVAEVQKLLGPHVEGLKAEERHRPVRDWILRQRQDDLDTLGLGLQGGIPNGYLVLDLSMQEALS

B1: S009-F7.2.3 (antibody, human IgG1, kappa, V domains shown)
VH: ELQLVESGGDLVKPGGSLKLSCAASGFTFSSNGMSWLRQTPDKRLEWVATISSGGRYTYYPDSVKGRFTISRDNAKNTLYLQMSSLKSEDTAMYYCARRGIYDYFDCWGQGTTLTVSS
VL: DIQMTQSPASLSISVGETVTITCRASENIHSSLAWYQQKQGKSPQLLVYAATNLADGVPSRFSGSGSGSQYSLKINSLQSEDFGTYYCQHFWGTPWTFGGGTKLDIKR
notes: human-murine chimeric antibody, human IgG1/kappa constant regions
competition rate [1]: 54.1% | competition rate [2]: 3.48% | competition rate [3]: 93.3% | Kd [4]: 13.2 nM | koff [4]: 0.00851 s⁻¹ | kon [4]: 643000 M⁻¹ s⁻¹ | competition rate [5]: -3.83%

B2: S009-F7.18.10 (antibody, human IgG1, kappa, V domains shown)
VH: QVQLQQSGAELVRPGTSVKVSCKASGYAFTNYLIEWVKQRPGQGLEWIGVINPGSGGTKYNEKFKGKATLTADKSSSTAYMQLSSLTSEDSAVYFCASDYDYDPFAYWGQGTLVTVSA
VL: DIVMTQSHKFMSTSVGDRVSITCKASQDVSTAVAWYQRKPGQSPKLLIYWASTRHTGVPDRFTGSGSGTDYTLTISYMQAEDLALYYCQQHYSTPYTFGGGTKLEIKR
notes: as for B1
competition rate [1]: 97% | competition rate [2]: 94.4% | competition rate [3]: -29.4% | Kd [4]: 0.64 nM | koff [4]: 0.00117 s⁻¹ | kon [4]: 1.83e+06 M⁻¹ s⁻¹ | competition rate [5]: 9.2%

B3: S009-F3.7.3 (antibody, human IgG1, kappa, V domains shown)
VH: EVNFEESGGGLVQPGGSMKLSCVASGFTFSNYWMNWVRQSPEKGLEWVAQIRLKSDNYATHYAESVKGRFTISRDDFKSSVYLQMNNLRAEDTGIYYCTVGTGGYWGQGTTLTVSS
VL: DIVLTQSPASLAMSLGKRATISCRASESVSIVGTNVIHWFQQKPGQPPKLLIYHASNLETGVPARFSGSGSGTDFTLTIDPVEEDDVAIYHCLQSRKIPWTFGGGTKLEIKR
notes: chimeric, human IgG1/kappa
binding result [6]: no binding

B4: Tab106 (YP218, hIgG1) (antibody, V domains shown)
VH: QQQLEESGGGLVKPEGSLTLTCKASGFDLGFYFYACWVRQAPGKGLEWIACIYTAGSGSTYYASWAKGRFTISKASSTTVTLQMTSLAAADTATYFCARSTANTRSTYYLNLWGPGTLVTVSS
VL: DVVMTQTPASVSEPVGGTVTIKCQASQRISSYLSWYQQKPGQRPKLLIFGASTLASGVPSRFKGSGSGTEYTLTISDLECADAATYYCQSYAYFDSNNWHAFGGGTEVVVRT
notes: Control antibody; VH and VL recombined into human IgG1 CH and CL expression vectors; also called YP218 human IgG1 antibody; anti-human MSLN-R3 antibody
OD450 nm [7]: 2.29 | OD450 nm [8]: 0.05 | OD450 nm [9]: 0.05 | OD450 nm [10]: 0.62 | OD450 nm [11]: 0.04 | OD450 nm [12]: 0.62 | OD450 nm [13]: 0.05 | OD450 nm [14]: 0.7 | OD450 nm [15]: 0.05 | OD450 nm [16]: 0.05 | OD450 nm [17]: 0.05 | OD450 nm [18]: 0.12 | OD450 nm [19]: 1.75 | OD450 nm [20]: 0.05 | OD450 nm [21]: 0.04 | OD450 nm [22]: 0.11 | OD450 nm [23]: 0.04 | OD450 nm [24]: 0.06

B5: F7.33.24 (scFv)
chain: QVQLQQPGTELVKPGASVKLSCKASGYTFTSYWMHWVKQRPGQGLEWIGNVNPSNGGSNYNEKFKNKATLTVDKSSSTADMQLNSLTSEDSAVYYCAPHYIGSRPGFAYWGQGTLVTVSGGGGGSGGGGSGGGGSDIVMTQSQKFMSTSVGDRVSVTCKASQNVGTNIAWYQQKPGQSPKALIYSASYRYSGVPDRFTGSGSGTDFTLTITNVQSEDLAEYFCQQYNSYPLTFGGGTKVEIK
EC50 [25]: 7.97 nM | Maximum_MFI [25]: 8910 MFI | EC50 [26]: 4.75 nM | Maximum_MFI [26]: 2260 MFI | EC50 [27]: 1.63 nM | Maximum_MFI [27]: 1490 MFI

B6: Tab111 (scFv, not shown: small tags and cut ends)
scFv: DVVMTQTPASVSEPVGGTVTIKCQASQRISSYLSWYQQKPGQRPKLLIFGASTLASGVPSRFKGSGSGTEYTLTISDLECADAATYYCQSYAYFDSNNWHAFGGGTEVVVGGGGSGGGGSGGGGSQQQLEESGGGLVKPEGSLTLTCKASGFDLGFYFYACWVRQAPGKGLEWIACIYTAGSGSTYYASWAKGRFTISKASSTTVTLQMTSLAAADTATYFCARSTANTRSTYYLNLWGPGTLVTVSS
notes: also called YP218 VL-(G4S)3-VH-his antibody; positive control
OD450 nm (human MSLN-R3 protein [28]): 0.25 OD | OD450 nm (human MSLN-R3 protein [29]): 0.05 OD | OD450 nm (human MSLN-R3 protein [30]): 0.05 OD | EC50 [27]: 0.76 nM | Maximum_MFI [27]: 2120 MFI | EC50 [31]: 30.2 nM | Maximum_MFI [31]: 777 MFI | EC50 [32]: 1.22 nM | Maximum_MFI [32]: 4970 MFI | OD450 nm (human MSLN-R3 protein [33]): 1.89 OD | OD450 nm (human MSLN-R3 protein [34]): 1.05 OD | OD450 nm (human MSLN-R3 protein [35]): 0.05 OD | EC50 [36]: 1.6 nM | Maximum_MFI [36]: 3070 MFI | EC50 [37]: 0.76 nM | Maximum_MFI [37]: 2120 MFI | OD450 nm (human MSLN-R3 protein [38]): 0.07 OD

B7: F3.38.10-L2H3a (scFv, not shown: small tags and cut ends)
scFv: DIVMTQSPDSLAVSLGERATINCRSSQSLIHSDGNTYLQWYQQKPGQSPKLLIYKVSNRFSGVPDRFSGSGSGTDFTLTISSLQAEDVAVYYCSQTTHVPFTFGQGTKLEIKGGGGSGGGGSGGGGSEVQLVQSGAEVKKPGASVKVSCKASGYIFTDYYMNWVRQAPGQRLEWMGVINPKQGVISHNQKFKGRVTITVDKSANTAYMELSSLRSEDTAVYYCANYGSRFYAMDYWGQGTTVTVSS
notes: also called S009-F3.38.10 humanized antibody VL2 + VH3a
OD450 nm (human MSLN-R3 protein [28]): 0.12 OD | OD450 nm (human MSLN-R3 protein [29]): 0.05 OD | OD450 nm (human MSLN-R3 protein [30]): 0.05 OD | EC50 [31]: 166 nM | Maximum_MFI [31]: 795 MFI | OD450 nm (human MSLN-R3 protein [33]): 1.88 OD | OD450 nm (human MSLN-R3 protein [34]): 0.72 OD | OD450 nm (human MSLN-R3 protein [35]): 0.05 OD | OD450 nm (human MSLN-R3 protein [38]): 0.06 OD
